We go through 14 molecules from patent US20240400689A1 (ANTENGENE BIOLOGICS, published 2024).

B1: 16-G3-D10-C10 (human IgG1 chimeric antibody) (antibody, V domains shown)
VH: QIQLVQSGPELKKPGETVKISCKASGYTFRNYGMNWVKQGPGKDLKWMGWINPYTGEPTYIGDFKGRFAFSLETSANSAYLQINNLNNEDMATYFCARDDGYWYTMDYWGQGTSVTVSS
VL: DVVMTQTPPSLPVSLGDQASIPCRSSQSLVHSNGITYLHWYLQKPGQSPKLLIYKVSNRFSGVPDRFSGSGSGTDFTLKISRVEAEDLGVYFCSQSTHVPWTFGGGTKLEIK
notes: human IgG1 chimeric antibody of the mouse clone
B2: 21-B3-B1-H5 (human IgG1 chimeric antibody) (antibody, V domains shown)
VH: B1 VH with T28I, G40A, D44G, P53S, E57K, I61V, G62D, N77S, S78T, N87K
VL: B1 VL with P9L, P22S, I35H
notes: as for B1
B3: 30-E2-G7-G7 (human IgG1 chimeric antibody) (antibody, V domains shown)
VH: EVQLQESGGGLVKPGGSLKLSCAASGFTFSYYAMSWVRQTPEKRLEWVATINGDGSHTYYPDSVRGRFTISRDNAKNTLYLQVSSLRSEDTAMYYCASLLQLGPFWGQGTTLTVSS
VL: DIVMTQSQKFMSTSVGDRVSVTCKASQNVGTNVAWYHQRPGQSPKPLIYSASYRYSGVPDRFTGSGSGTDFTLTISNVQSEDLAEYFCQQYNNYPLTFGSGTKLEIK
notes: as for B1
B4: 27-F8-E10-E11 (human IgG1 chimeric antibody) (antibody, V domains shown)
VH: EVQLQQSGPELVKPGASVKISCKTSGYTFTEYAMHWVKQSHGKILEWIGGINPNIGGTTYNQKFKDKATLTVDKSSSTASMELRSLTSEDSAVYYCARFLVPSTEGFTYWGQGTLVTVSA
VL: QIVLTQSPAIMSASPGEKVTMTCSASSSVSYMHWYQQKSGTSPKRWIYDTSRVASGVPARFSGSGSGTSYSLTISSMEAEDAATYYCQQWSSNPLTFGAGTKLELK
notes: as for B1
B5: 3-C2-C3-E7 (human IgG1 chimeric antibody) (antibody, V domains shown)
VH: EVQLQQSGPELVKPGASVKISCKTSGYTFTENTMHWVKQSHGKRLEWIGGINPNTGGTTYNQKFKGKATLTVDKSSSTAYMELRSLTSEDSAVYYCARRGTNWEHWYFDVWGAGTTVTVSS
VL: B4 VL with R52K, V53L
notes: as for B1
B6: 3-G7-D8-D3 (human IgG1 chimeric antibody) (antibody, V domains shown)
VH: QVQLQQSGAELARPGTSVKLSCKASGYTFTTYWIQWVKQRPGQGLEWIGAIYPGDGDTRYTQKFKGKATLTADKSSSTAYMQLSTLASEDSAVYYCARPYDGYYIDYPMDSWGQGTSVTVSS
VL: QIVLTQSPAIMSASPGEKVTMTCSASSRINYMHWYQQKPGTSPIIWIYDTSKLASGVPARFSGSGSGTSYSLTISSMEAEDAATYYCHQRSSYPFTFGSGTKLEIK
notes: as for B1
B7: 15-G1-D1-E3 (human IgG1 chimeric antibody) (antibody, V domains shown)
VH: QVQLQQPGAELVKPGTSVKLSCKASGYTFTSYWIHWVKQRPGQGLEWIGMIHPKSGTVDYNEKFKSKATLTADKSSNTAYMQLSSLTSEASVVYYCARGENYDYRPQFVYWGQGTLVTVSA
VL: QLVLTQSSSASFSLGASAKLTCTLSSQHSTYTIEWYQQQPLKPPKYVMELKKDGSHRTGDGIPDRFSGSSSGADRYLSISNIQPEDEAIYICGVGDTIKEQFVYVFGGGTKVTVL
notes: as for B1
B8: 9-G2-H6-E4 (human IgG1 chimeric antibody) (antibody, V domains shown)
VH: EVQLQQSGPDLVKPGASVKISCKASGYSFTGYFMNWVKQRHGKSLEWIGYINPNNGDTIYNQKFKGKATLTVDKSSSTAHMELLSLTSEDSAVYYCGRGGLPFGALDYWGQGTSVTVSS
VL: DIVMSQSPSSLAVSVGEKVNMSCKSSQSLLYSRNQKNYLAWNQQKPGQSPKLLIYWASARESGVPDRFTGSGSGTDFTLTISSVKAEDLAAYYCQQYHSYPYTFGGGTKLELK
notes: as for B1
B9: 14-E7-G9-D4 (human IgG1 chimeric antibody) (antibody, V domains shown)
VH: EVQLQQSGPELVKPGASVKMSCKASGYTFTNYIMHWVKQKPGQGLEWIGYINPYNDGIKYNEKFKGKATLTSDKSSSTAYMELSSLTSEDSAVYYCTRWGNYVFYYTMDYWGQGTSVTVSS
VL: QIVLSQSPAILSASPGEKVTMTCRASSSVSYMHWYQQKPGSSPKPWIYATSNLASGVPARFSGSGSGTSYSLTISRMEAEDAATYYCQQWSGNPPLTFGAGTKLELK
notes: as for B1
B10: 27-E7-D8-C7 (human IgG1 chimeric antibody) (antibody, V domains shown)
VH: EVQLQESGPELVRPGVSVKISCKGSGYTFTDYAMHWVKQSHAKSLEWIGVINTYSDNTNYNRKFKGKATMTVDKSSSTAYMELARLTSEDSAIYYCARGLLLRSQLGVYFDYWGQGTTLTVSS
VL: QIVLSQSPAILSASPGEKVTMTCRASSSVSYMHWYQQKPGSSPKPWIYATSNLASGVPARFSGSGSGTSYSLTISRVEAEDAATYYCQQWSSNPWTFGGGTKLEIK
notes: as for B1
B11: 10-G6-C4-B2_hVH2-VL1_PTM (antibody, V domains shown)
VH: EVQLVESGGGLVQPGGSLRLSCATSGFTLSDYYMSWVRQAPGKGLEWVSFMRNKANAYTTEYSASVRGRFTISRDTSKSTIYLQMNSLRAEDTAVYYCVRDREGRPFAYWGQGTLVTVSS
VL: DIVMTQSPDSLAVSLGERATINCKSSQSLLNAINQKNFLTWYQQKPGQPPKLLIYWASTRESGVPDRFSGSGSGTDFTLTISSLQAEDLAVYYCQNDYTYPLTFGQGTKLEIK
notes: humanized, PTM-optimized antibody from 10-G6-C4-B2
B12: 10-G6-C4-B2_hVH3-VL3_PTM (antibody, V domains shown)
VH: B11 VH with S49G, T80S, R89K, A90T
VL: DIQMTQSPSSLSASVGDRVTITCKSSQSLLNAINQKNFLTWYQQKPGKAPKLLIYWASTRESGVPSRFSGSGSGTDFTLTISSLQPEDLATYYCQNDYTYPLTFGQGTKLEIK
notes: as for B11
B13: 10-G6-C4-B2_hVH5-VL1_PTM (antibody, V domains shown)
VH: B11 VH with G16R, A23T, S49G, T80I, R89K, A90T
VL: B11 VL
notes: as for B11
B14: 10-G6-C4-B2_hVH4-VL1_PTM (antibody, V domains shown)
VH: B11 VH with V12I, A40P
VL: B11 VL
notes: as for B11

Substitutions are numbered along the chain they refer to.

One experiment concerns the target T1, human CD276 protein (human, UniProt Q5ZPR3 29-534).
T1 sequence (looked up): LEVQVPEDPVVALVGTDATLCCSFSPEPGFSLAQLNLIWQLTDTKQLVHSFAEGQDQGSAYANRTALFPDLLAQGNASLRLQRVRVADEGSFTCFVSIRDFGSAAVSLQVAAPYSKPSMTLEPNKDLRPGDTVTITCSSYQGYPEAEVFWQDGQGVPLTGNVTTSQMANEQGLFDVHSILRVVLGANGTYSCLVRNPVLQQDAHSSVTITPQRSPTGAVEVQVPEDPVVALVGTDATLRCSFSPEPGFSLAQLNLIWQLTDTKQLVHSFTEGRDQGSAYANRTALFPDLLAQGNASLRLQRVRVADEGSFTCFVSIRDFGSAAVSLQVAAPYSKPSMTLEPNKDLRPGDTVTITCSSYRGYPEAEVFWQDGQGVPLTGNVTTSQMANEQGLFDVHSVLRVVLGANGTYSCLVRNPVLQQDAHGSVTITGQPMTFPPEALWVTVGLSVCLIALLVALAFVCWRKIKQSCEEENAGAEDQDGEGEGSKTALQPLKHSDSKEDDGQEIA
The experiment is described as follows: cell-based or functional assay.
Take B1: the “EC50 of antibody induced ADCC effect on SKOV3” value (“EC50 … on SKOV3” below) was 0.0419 µg/mL.
Regarding B2, the “EC50 … on SKOV3” value came out at 0.648 µg/mL.
Turning to B3, the “EC50 … on SKOV3” value was found to be 0.247 µg/mL.
Take B4: the “EC50 … on SKOV3” value turned out to be 0.0238 µg/mL.
On the same count and under the same terms, the figure for B5 is 0.186 µg/mL; for B6 it is 0.00898 µg/mL; for B7 it is 0.0655 µg/mL.
Still for that read-out and setting: the figure for B8 is 13.6 µg/mL.
Same read-out and setting: the figure for B9 is 0.252 µg/mL.
With B10, the “EC50 … on SKOV3” value was 0.103 µg/mL.

A further experiment addresses T1, human CD276 protein. The experiment can be described thus: cell-based or functional assay. This is another data set of the same source.
Take B1: the “EC50 of antibody induced CDC effect” value turned out to be 1.43 nM and the “Top cytotoxicity (%), CDC” value was 93.6%.

For the next experiment, the target named is T1, human CD276 protein. The experiment is described as follows: FACS on SKOV3 cells. From the text: Sequences of 31 mouse antibodies from Table 5 were selected to generate and produce human IgG1 chimeric antibodies. The binding affinity of these antibodies and bench mark antibody, Enoblituzumab (see U.S. Pat. No. 8,802,091, MGA271, specifically with a construct designated as hBRCA84D-2) and MGC018 (an antibody-drug-conjugate, in which the mAb MGA017 (human IgG1) is conjugated via a cleavable linker to the prodrug seco-DUocarmycin hydroxyBenzamide Azaindole (DUBA), an alkylating agent that can damage DNA in both dividing and non-dividing cells, thereby causing cell death) with human patient derived ovarian cancer cell line, SKOV3, was determined by FACS analysis.
1. Digested cells using Trypsin (1×); Centrifuged the harvested cells at 300 g for 3 min and discarding the supernatant. […] 2. Washed the cells 2 times with FACS buffer by centrifuging at 300 g for 3 min and discarding the supernatant. [0445] 3. […] Kept the cells in dark for FACS analysis.
Turning to B1, a half-maximal effect (EC50) was put at 1.31 µg/mL and the “MFI (Max)” value worked out at 3180.
As to B2, the midpoint of the response, the EC50, lay at 0.723 µg/mL and the “MFI (Max)” value was 2720.
For B3, in that order: 0.814 µg/mL and 5630.
For B4, in that order: 2.26 µg/mL and 3220.
For B5, in that order: 1.43 µg/mL and 3700.
Consider B6, for which the concentration giving a half-maximal response (EC50) was found to be 0.509 µg/mL and the “MFI (Max)” value amounted to 1210.
For B7, in that order: 0.811 µg/mL and 3190.
As to B8, the EC50 came to 3.66 µg/mL and the “MFI (Max)” value came to 292.
For B9, in that order: 1.62 µg/mL and 2730.
For B10, in that order: 0.542 µg/mL and 4750.

The target of the next experiment is T2, HUMAN B7H3 (Biacore analyte) (human, UniProt Q5ZPR3 29-461, limits assumed).
T2 construct: also called hB7H3
T2 sequence (looked up): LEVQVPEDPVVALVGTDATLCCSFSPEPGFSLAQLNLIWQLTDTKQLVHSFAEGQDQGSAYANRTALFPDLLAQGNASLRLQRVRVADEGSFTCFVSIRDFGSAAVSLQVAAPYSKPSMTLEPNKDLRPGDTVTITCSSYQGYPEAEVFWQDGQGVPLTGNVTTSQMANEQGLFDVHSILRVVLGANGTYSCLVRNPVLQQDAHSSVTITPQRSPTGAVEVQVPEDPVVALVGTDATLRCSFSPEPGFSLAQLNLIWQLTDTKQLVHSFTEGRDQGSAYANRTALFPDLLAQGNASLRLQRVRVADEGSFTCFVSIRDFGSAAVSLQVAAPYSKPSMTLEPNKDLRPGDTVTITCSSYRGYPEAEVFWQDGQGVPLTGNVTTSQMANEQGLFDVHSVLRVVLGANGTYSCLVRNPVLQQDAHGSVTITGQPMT
The experiment can be described thus: SPR, Biacore 8K, antibody captured, B7H3 as analyte, 1:1 binding.
Molecule B11 came in with a Kd of 0.851 nM, a koff of 7.26e-05 s⁻¹ and a kon of 85300 M⁻¹ s⁻¹.
In turn, B12 showed an equilibrium dissociation constant (Kd) of 0.0087 nM, a koff of 1.02e-06 s⁻¹ and a kon of 118000 M⁻¹ s⁻¹.
For B13, in that order: 0.0929 nM, 1.37e-05 s⁻¹ and 147000 M⁻¹ s⁻¹.
For B14, in that order: 1.73 nM, 0.000155 s⁻¹ and 89600 M⁻¹ s⁻¹.

For a further experiment, the target named is T2, HUMAN B7H3 (Biacore analyte). The experiment is described as above. This is another data set of the same source.
B1 displayed a Kd of 1.16 nM, a koff of 0.000214 s⁻¹ and a kon of 185000 M⁻¹ s⁻¹.
For B4, in that order: 0.621 nM, 0.000173 s⁻¹ and 278000 M⁻¹ s⁻¹.
In turn, B7 registered a Kd of 0.383 nM, a koff of 0.000211 s⁻¹ and a kon of 550000 M⁻¹ s⁻¹.

Usually EC50 stands for the midpoint of the concentration-response curve. As a reminder, the Kd is the constant that tells how readily two partners part at equilibrium. A low value points to higher affinity. The term koff denotes the rate constant with which the complex falls apart. As usually defined, the kon is the rate constant with which the complex forms. Read a low kon as slower complex formation.
